{"source": "paper PMC3753628", "about": "“Recognition and processing of double-stranded DNA by ExoX, a distributive 3′–5′ exonuclease”", "binders": {"B1": {"name": "12 bp blunt-ended dsDNA (complex II) (dsDNA)", "DNA 1": "CTCGAATCTACA", "DNA 2": "TGTAGATTCGAG"}, "B2": {"name": "3' overhanging dsDNA (complex I) (dsDNA)", "DNA 1": "CGGATCCACAATGACCT", "DNA 2": "GTCATTGTGGATCCGAG"}, "B3": {"name": "3' recessed mismatch-containing dsDNA (complex III) (dsDNA)", "DNA 1": "GTCATTGTGGATCCGAG", "DNA 2": "GTCATTGTGGATCCGAG"}}, "key": {"ExoX (NT167) [1]": {"molecular_target": "T1, ExoX (NT167) (Escherichia coli K12, UniProt P0AEK0 1-167)", "T1 sequence": "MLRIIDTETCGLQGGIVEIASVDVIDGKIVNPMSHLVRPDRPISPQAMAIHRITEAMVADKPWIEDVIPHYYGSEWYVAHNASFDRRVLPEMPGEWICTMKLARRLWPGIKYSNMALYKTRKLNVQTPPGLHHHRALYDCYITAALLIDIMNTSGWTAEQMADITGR", "test": "X-ray crystallography; 2 ExoX monomers per DNA; metal at MeA site; Crystals by hanging drop, 16 C: complex I 0.1 M Tris-HCl pH 8.0, 0.2 M NaCl, 20% PEG 3350; complexes II and III 0.1 M MES pH 6.3, 17% PEG 6000; protein:DNA 1:0.6, 30 min at 4 C, gel filtration", "conditions": "protein: recombinant; (pET24a, Ni-NTA); chain copies: 2; blunt"}, "ExoX (NT167) [2]": {"molecular_target": "T1, ExoX (NT167)", "test": "X-ray crystallography; two undefined metal ions (MeA, MeB), probably inactive (Ni2+ or Na+); SeMet ExoX; 2:1 protein:DNA; Crystals by hanging drop, 16 C: complex I 0.1 M Tris-HCl pH 8.0, 0.2 M NaCl, 20% PEG 3350; complexes II and III 0.1 M MES pH 6.3, 17% PEG 6000; protein:DNA 1:0.6, 30 min at 4 C, gel filtration", "conditions": "protein: recombinant; (pET24a, Ni-NTA; chain copies: 2; text says 17 bp)"}, "ExoX (NT167) [3]": {"molecular_target": "T1, ExoX (NT167)", "test": "X-ray crystallography; Crystals by hanging drop, 16 C: complex I 0.1 M Tris-HCl pH 8.0, 0.2 M NaCl, 20% PEG 3350; complexes II and III 0.1 M MES pH 6.3, 17% PEG 6000; protein:DNA 1:0.6, 30 min at 4 C, gel filtration", "conditions": "protein: recombinant; (pET24a, Ni-NTA); chain copies: 2; self-annealed, 2 copies of S2; 5' overhang 5 nt, mispaired 3' terminal nucleotides"}}, "data": [{"binder": "B1", "values": [{"measurement": "binding result", "setting": "ExoX (NT167) [1]", "value": "binds"}]}, {"binder": "B2", "values": [{"measurement": "binding result", "setting": "ExoX (NT167) [2]", "value": "binds"}]}, {"binder": "B3", "values": [{"measurement": "binding result", "setting": "ExoX (NT167) [3]", "value": "binds"}]}]}
